In PMC9403545, “Structure based design of effective HtpG-derived vaccine antigens against M. tuberculosis” (Frontiers in Molecular Biosciences, 2022):

Target: HtpGMtb_C (C-terminal domain of HtpGMtb, wild type) (M. tuberculosis H37Rv)
Assay: SEC-MALS

HtpGMtb_C (C-terminal domain of HtpGMtb, wild type) (domain or fragment), sequence (A1KKZ1 417-645 limits assumed): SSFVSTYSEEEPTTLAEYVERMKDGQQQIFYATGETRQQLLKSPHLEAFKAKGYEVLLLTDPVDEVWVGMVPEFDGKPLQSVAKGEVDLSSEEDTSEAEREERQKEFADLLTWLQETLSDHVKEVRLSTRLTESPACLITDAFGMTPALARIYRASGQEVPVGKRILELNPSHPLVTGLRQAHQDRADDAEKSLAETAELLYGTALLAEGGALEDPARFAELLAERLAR

HtpGMtb_C (C-terminal domain of HtpGMtb, wild type) (domain or fragment)
stoichiometry N: 2
